Measured values: PMC4112278

Experiments:
Assay in all cases: SEC
[1] = target: HIV-1_(NIBSC40-9) gp140 Env trimer (HIV-1 (isolate NIBSC 40-9, clade A))
[2] = target: HIV-1_(YU2) gp140 Env trimer (HIV-1 (isolate YU2))
[3] = target: SIV_(mac239) gp140 Env trimer (SIV_(mac239))
[4] = target: HIV-1_(ITM1_4) gp140 Env trimer (HIV-1 (isolate ITM1_4, clade A))
[5] = target: HIV-1_(UG37) gp140 Env trimer (HIV-1 (isolate UG37, clade A))

## HIV-1_(NIBSC40-9) gp140 Env trimer (domain or fragment)
[1]
  stoichiometry N: 3

## HIV-1_(YU2) gp140 Env trimer (domain or fragment)
[2]
  stoichiometry N: 3

## SIV_(mac239) gp140 Env trimer (domain or fragment)
[3]
  stoichiometry N: 3

## HIV-1_(ITM1_4) gp140 Env trimer (domain or fragment)
[4]
  stoichiometry N: 3

## HIV-1_(UG37) gp140 Env trimer (domain or fragment)
[5]
  stoichiometry N: 3
